Assay [1] has as its target T1, Glutathione-S-transferase from Schistosoma japonicum (Schistosoma japonicum, UniProt P08515 = GST).
T1 construct: GST of Schistosoma japonicum (printed as 'glutathione-S from Schistosoma japonicum'); recombinant from the vector pGEX-4T-2 in the selection; GST from pGEX-4T-2 would carry some residues of the vector's linker at its C-terminus; also called GST
Briefly: SPR; GST immobilised on a CM5 chip by EDC/NHS (160 RU), 0-500 nM sdAb injected, 25°C, PBS with 0.05% Tween-20, 30 μL/min; steady state responses fitted to a one-site binding model; apparent. The note with it: both partners purified. (SPR reads the build-up and loss of mass on a sensor chip optically.)

The target in assay [2] is T1, Glutathione-S-transferase from …. The assay can be described thus: ELISA. To be noted: both partners purified. For orientation: ELISA stands for enzyme-linked immunosorbent assay.

T1 sequence (P08515 whole entry, looked up): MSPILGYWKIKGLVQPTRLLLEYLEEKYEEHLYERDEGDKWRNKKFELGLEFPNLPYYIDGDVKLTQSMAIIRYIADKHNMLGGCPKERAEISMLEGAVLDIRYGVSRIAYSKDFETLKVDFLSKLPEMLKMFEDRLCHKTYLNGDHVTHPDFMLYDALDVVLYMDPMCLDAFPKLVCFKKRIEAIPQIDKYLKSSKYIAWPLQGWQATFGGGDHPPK

B1: sdAb-aGST-MESNA (llama single-domain antibody against GST with a C-terminal MESNA thioester) (VHH)
VHH: QVQLQDSGGGIVQPGGSLRLSCAGSGFSLDHYAIGWFRQAPGKRRELVASITSGGTIRYADSVKDRFTISRDNAKNRVYLQMNSLKPEDTAVYYCSARAKFSTSYDYWGQGTQVTVSS
notes: llama single-domain antibody from a naive phage display library, clone C11 of vector pHENIX sdAb-α GST C11; A mix of species that differ in how much of the pelB leader is left (LC-MS: calcd. 19632, 19501, 18175, 18062 Da); One conserved disulfide bond; also called sdAb-α GST-MESNA; sdAb-GST; source: E. coli BL21 (DE3), pTXB1, periplasm; purified on a chitin column, cleaved from the intein with …
B1: the figures for the Kd in assay [1] and in assay [2] were 116 nM and 77 nM, respectively.

The record behind these values is PMC2719619, “Efficient, chemoselective synthesis of immunomicelles using single-domain antibodies with a C-terminal thioester” (BMC Biotechnology, 2009).
